What was measured:
α6β1 integrin [1] = target: α6β1 integrin (UniProt P23229); test: solid-phase binding assay: plate coated with 0.5 µg/cm^2 511E8, not dried, 10 nM α6β1 integrin
α6β1 integrin [2] = target: α6β1 integrin (UniProt P23229); test: solid-phase binding assay: plate coated with 1.0 µg/cm^2 511E8, not dried, 10 nM α6β1 integrin
α6β1 integrin [3] = target: α6β1 integrin (UniProt P23229); test: solid-phase binding assay: plate coated with 0.4 µg/cm^2 511E8, not dried, 10 nM α6β1 integrin
α6β1 integrin [4] = target: α6β1 integrin (UniProt P23229); test: solid-phase binding assay: plate coated with 0.75 µg/cm^2 511E8, dried 1 h at room temperature, 10 nM α6β1 integrin, absorbance at 490 nm
α6β1 integrin [5] = target: α6β1 integrin (UniProt P23229); test: solid-phase binding assay: plate coated with 0.25 µg/cm^2 511E8 with 167 µg/mL gelatin, dried 1 h, 10 nM α6β1 integrin, absorbance at 490 nm
α6β1 integrin [6] = target: α6β1 integrin (UniProt P23229); test: solid-phase binding assay: plate coated with 0.25 µg/cm^2 511E8 with 500 µg/mL gelatin, dried 1 h, 10 nM α6β1 integrin, absorbance at 490 nm
α6β1 integrin [7] = target: α6β1 integrin (UniProt P23229); test: solid-phase binding assay: plate coated with 0.4 µg/cm^2 511E8 with 0.8 µg/cm^2 211E8, dried 24 h, 10 nM α6β1 integrin, absorbance at 490 nm
α6β1 integrin [8] = target: α6β1 integrin (UniProt P23229); test: solid-phase binding assay: plate coated with 0.4 µg/cm^2 511E8 with 1.6 µg/cm^2 211E8, dried 24 h, 10 nM α6β1 integrin, absorbance at 490 nm
α6β1 integrin [9] = target: α6β1 integrin (UniProt P23229); test: solid-phase binding assay: plate coated with 0.5 µg/cm^2 511E8 alone, dried 24 h, stored 1 week at 4°C, 10 nM α6β1 integrin, absorbance at 490 nm
α6β1 integrin [10] = target: α6β1 integrin (UniProt P23229); test: solid-phase binding assay: plate coated with 0.5 µg/cm^2 511E8 with 0.1% BSA, dried 24 h, stored 1 week at 4°C, 10 nM α6β1 integrin, absorbance at 490 nm
α6β1 integrin [11] = target: α6β1 integrin (UniProt P23229); test: solid-phase binding assay: plate coated with 0.5 µg/cm^2 511E8 with 0.05% gelatin, dried 24 h, stored 1 week at 4°C, 10 nM α6β1 integrin, absorbance at 490 nm
α6β1 integrin [12] = target: α6β1 integrin (UniProt P23229); test: solid-phase binding assay: plate coated with 0.5 µg/cm^2 511E8 with 20% glucose (or some other candidates), dried 24 h, stored 1 week at 4°C, 10 nM α6β1 integrin, absorbance at 490 nm
α6β1 integrin [13] = target: α6β1 integrin (UniProt P23229); test: solid-phase binding assay: plate coated with 0.5 µg/cm^2 521E8, not dried, 10 nM α6β1 integrin
α6β1 integrin [14] = target: α6β1 integrin (UniProt P23229); test: solid-phase binding assay: plate coated with 1.0 µg/cm^2 521E8, not dried, 10 nM α6β1 integrin

UniProt P23229, sequence (P23229 other isoform, or with tags, fused parts or gaps limits assumed, chain 1 of 2): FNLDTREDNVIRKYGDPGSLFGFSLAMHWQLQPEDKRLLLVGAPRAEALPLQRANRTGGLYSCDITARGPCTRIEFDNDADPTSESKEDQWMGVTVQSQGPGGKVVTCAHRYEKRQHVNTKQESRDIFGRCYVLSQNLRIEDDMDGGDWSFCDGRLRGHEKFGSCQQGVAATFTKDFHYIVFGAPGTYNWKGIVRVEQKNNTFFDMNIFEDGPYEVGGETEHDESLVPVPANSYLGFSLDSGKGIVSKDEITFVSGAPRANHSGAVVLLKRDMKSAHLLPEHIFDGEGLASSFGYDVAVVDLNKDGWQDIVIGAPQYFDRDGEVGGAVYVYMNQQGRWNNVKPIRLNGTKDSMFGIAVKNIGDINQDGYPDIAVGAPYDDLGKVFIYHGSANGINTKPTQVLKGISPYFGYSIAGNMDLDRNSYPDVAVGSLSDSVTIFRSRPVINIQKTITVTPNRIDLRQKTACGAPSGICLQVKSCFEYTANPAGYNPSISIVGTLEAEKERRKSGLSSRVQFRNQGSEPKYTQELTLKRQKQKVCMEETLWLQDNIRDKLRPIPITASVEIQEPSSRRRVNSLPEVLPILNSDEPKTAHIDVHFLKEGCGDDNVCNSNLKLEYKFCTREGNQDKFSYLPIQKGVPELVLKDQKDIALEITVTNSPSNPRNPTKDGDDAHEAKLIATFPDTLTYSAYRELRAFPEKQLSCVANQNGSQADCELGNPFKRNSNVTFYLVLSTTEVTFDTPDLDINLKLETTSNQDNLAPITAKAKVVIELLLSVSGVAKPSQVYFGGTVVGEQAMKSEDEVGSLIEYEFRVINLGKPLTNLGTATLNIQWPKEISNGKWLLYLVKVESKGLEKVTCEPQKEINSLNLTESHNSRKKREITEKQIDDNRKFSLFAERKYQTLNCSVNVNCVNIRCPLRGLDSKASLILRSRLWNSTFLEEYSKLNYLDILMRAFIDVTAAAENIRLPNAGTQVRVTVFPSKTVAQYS
UniProt P23229, sequence (P05556 21-728 limits assumed, chain 2 of 2, further chain): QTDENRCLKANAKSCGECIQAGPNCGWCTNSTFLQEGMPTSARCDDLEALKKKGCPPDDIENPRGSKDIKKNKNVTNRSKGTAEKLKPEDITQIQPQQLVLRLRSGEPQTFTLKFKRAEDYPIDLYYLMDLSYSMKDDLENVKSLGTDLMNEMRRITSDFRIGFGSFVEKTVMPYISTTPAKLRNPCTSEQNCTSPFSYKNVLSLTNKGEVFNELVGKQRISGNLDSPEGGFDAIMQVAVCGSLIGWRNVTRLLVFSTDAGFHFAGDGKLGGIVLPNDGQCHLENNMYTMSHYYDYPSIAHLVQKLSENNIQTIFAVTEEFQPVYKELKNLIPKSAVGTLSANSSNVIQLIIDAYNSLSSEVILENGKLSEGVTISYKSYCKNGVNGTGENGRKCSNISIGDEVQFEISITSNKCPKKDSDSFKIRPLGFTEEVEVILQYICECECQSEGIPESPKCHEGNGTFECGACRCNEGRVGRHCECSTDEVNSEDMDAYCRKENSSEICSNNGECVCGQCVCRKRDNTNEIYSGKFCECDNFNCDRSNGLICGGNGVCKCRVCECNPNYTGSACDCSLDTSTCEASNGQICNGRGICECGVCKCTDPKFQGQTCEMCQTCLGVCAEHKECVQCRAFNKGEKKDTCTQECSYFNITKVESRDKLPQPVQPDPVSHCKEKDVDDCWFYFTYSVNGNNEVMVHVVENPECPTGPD

Substance	absorbance at 490 nm (amount of bound α6β1 integrin) (absorbance at 490 nm) (α6β1 integrin [1])	absorbance at 490 nm (amount of bound α6β1 integrin) (absorbance at 490 nm) (α6β1 integrin [2])	absorbance at 490 nm (amount of bound α6β1 integrin) (absorbance at 490 nm) (α6β1 integrin [3])	decrease of the amount of bound integrin after drying, against the undried control (α6β1 integrin [4]) [%]	integrin binding activity after drying (percent remaining) (α6β1 integrin [5]) [%]	integrin binding activity after drying (percent remaining) (α6β1 integrin [6]) [%]	integrin binding activity relative to undried 511E8 control (α6β1 integrin [7]) [%]	integrin binding activity relative to undried 511E8 control (α6β1 integrin [8]) [%]	integrin binding activity relative to undried 511E8 control (100%) (α6β1 integrin [9]) [%]	integrin binding activity relative to undried 511E8 control (100%) (α6β1 integrin [10]) [%]	integrin binding activity relative to undried 511E8 control (100%) (α6β1 integrin [11]) [%]	integrin binding activity relative to undried 511E8 control (100%) (α6β1 integrin [12]) [%]	absorbance at 490 nm (amount of bound α6β1 integrin) (absorbance at 490 nm) (α6β1 integrin [13])	absorbance at 490 nm (amount of bound α6β1 integrin) (absorbance at 490 nm) (α6β1 integrin [14])
Human recombinant laminin 511E8 (from UniProt O15230 2534-3327; P07942 1561-1786; P11047 1362-1608) (ligand)	2.62	2.96	1.07	30	40	70	30	80	< 10	90	90	40	–	–
Human recombinant laminin 521E8 (from UniProt O15230 2534-3327; P55268 1573-1798; P11047 1362-1608) (ligand)	–	–	–	–	–	–	–	–	–	–	–	–	2.75	2.83
